T1: recombinant mouse TREM-1-Fc Chimera (mouse, UniProt Q9JKE2 21-202)
T1 sequence (looked up): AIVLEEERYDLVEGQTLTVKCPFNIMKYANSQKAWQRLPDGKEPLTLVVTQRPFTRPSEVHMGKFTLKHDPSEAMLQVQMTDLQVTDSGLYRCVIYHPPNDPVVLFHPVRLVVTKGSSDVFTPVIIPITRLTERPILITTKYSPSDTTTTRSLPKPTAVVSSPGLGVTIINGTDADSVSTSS

T2: recombinant murine cold-inducible RNA-binding protein, His-tagged (rmCIRP-his) (mouse), P60824
T2 chain: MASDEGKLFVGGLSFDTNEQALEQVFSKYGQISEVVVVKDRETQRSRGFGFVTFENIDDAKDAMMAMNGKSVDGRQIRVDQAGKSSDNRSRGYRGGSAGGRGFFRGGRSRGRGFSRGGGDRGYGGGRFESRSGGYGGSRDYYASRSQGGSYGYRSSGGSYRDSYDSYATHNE

T3: triggering receptor expressed on myeloid cells-1 (TREM-1) on RAW264.7 macrophages (mouse (endogenous in RAW264.7), UniProt Q9JKE2 21-230)
T3 sequence (looked up): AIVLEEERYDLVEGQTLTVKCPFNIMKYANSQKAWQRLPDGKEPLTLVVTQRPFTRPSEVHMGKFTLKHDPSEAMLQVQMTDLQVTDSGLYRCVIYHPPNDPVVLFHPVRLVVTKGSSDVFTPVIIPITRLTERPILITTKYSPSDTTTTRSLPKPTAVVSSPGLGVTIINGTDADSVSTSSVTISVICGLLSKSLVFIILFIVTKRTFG

B1: recombinant mouse TREM-1-Fc Chimera, Q9JKE2 21-202 (Fc fusion)
chain: T1 sequence (looked up)
B2: recombinant murine cold-inducible RNA-binding protein, His-tagged (rmCIRP-his) (natural protein, mouse, UniProt P60824 1-172, looked up)
chain: T2 chain

Tests used:
[1] = biological target: T1, recombinant mouse TREM-1-Fc Chimera; assay: SPR
[2] = biological target: T2, recombinant murine cold-inducible …; assay: SPR; conditions: remark: other sources report otherwise
[3] = biological target: B2; assay: SPR
[4] = biological target: T3, triggering receptor expressed on …; assay: FRET or BRET

RGFFRGG [M3, 7-aa peptide derived from CIRP] was tested, and the Kd [1] was 35.2 µM.

For B1, the Kd [2] was 0.117 µM.

For LQVTDSGLYRCVIYHPP [LP17, 17 amino acid peptide taken from TREM-1], the Kd [3] was 48 µM.

With B2 the “fold increase in FRET units over the negative control CD11b” value [4] was roughly 7 fold.
